This passage reports Kd results from PMC12424427.

In this series the target is AGO2 (UniProt Q9UKV8). Put plainly: MST. To be noted: MST: labeled protein 5-150 nM, ligand 1E-10 to 1E-5 M, 5-15 min, buffer and temperature not stated, pull-down: 150 mM NaCl, 50 mM Tris pH 7.4, 1% Triton X-100 ….
Chain of AGO2 (Q9UKV8 whole entry): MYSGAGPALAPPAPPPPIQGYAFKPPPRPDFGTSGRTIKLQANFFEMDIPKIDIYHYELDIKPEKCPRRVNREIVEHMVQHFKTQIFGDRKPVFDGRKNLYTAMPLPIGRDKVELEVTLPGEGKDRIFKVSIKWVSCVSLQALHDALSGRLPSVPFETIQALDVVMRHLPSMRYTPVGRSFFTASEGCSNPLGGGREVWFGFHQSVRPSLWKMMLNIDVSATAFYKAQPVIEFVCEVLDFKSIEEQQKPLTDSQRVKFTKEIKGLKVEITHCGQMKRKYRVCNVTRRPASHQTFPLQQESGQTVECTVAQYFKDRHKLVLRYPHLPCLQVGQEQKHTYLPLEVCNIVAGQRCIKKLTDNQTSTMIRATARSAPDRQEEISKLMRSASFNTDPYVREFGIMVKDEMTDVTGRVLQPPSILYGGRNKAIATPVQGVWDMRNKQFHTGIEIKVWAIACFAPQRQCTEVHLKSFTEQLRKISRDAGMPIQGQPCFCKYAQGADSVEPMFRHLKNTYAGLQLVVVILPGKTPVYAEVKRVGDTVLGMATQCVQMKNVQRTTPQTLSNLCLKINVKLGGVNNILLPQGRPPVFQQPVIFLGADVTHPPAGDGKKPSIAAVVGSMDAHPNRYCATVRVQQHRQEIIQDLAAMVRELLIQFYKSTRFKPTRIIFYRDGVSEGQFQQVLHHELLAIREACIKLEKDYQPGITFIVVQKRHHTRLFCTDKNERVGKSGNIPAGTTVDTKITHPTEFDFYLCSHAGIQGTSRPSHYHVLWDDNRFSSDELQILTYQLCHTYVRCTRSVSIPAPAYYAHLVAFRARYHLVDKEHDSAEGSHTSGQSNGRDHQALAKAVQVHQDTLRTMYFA

In general, Kd refers to the concentration at which binding is half-saturated. Substance 5'ppp-dsRNA Control (dsRNA control) returned a Kd (no 5'-triphosphate) of 2200 nM. The substance 3p-hpRNA (5'ppp hairpin RNA) had a Kd (no competitor, 5'-triphosphate) of 205 nM.

For the substance 5'ppp-dsRNA, the Kd (5'-triphosphate) was 2200 nM.
